# Laboratory results as given in patent US20120263745A1 (DUKE UNIVERSITY, published 2012).
# Where no end group is shown, it is not given here.
# T1: Abz-tagged model CPAF substrate Abz-V-R-L-R-S-S-V-P-G-V-NH2 (SEQ ID NO:9), derived from human vimentin
# T1 chain: VRLRSSVPGV
# T2: Sequence-scrambled control peptide H-NFALSHFRLPLSTYKEMPYVSHWAGRRRRRRRRR-NH2 (SEQ ID NO:11)
# T2 chain: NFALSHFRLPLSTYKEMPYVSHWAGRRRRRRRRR
# T3: Peptide of SEQ ID NO:7 (CPAF inhibitory segment plus nine C-terminal arginines) (not fully specified)
# T3 chain: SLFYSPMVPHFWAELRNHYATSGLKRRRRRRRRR
# T4: Recombinant Chlamydial Protease-like Activity Factor (CPAF), his-tagged, expressed in E. coli BL21 (DE3) from … (C. trachomatis, UniProt O84866 17-234; O84866 276-601)
# T4 sequence 1: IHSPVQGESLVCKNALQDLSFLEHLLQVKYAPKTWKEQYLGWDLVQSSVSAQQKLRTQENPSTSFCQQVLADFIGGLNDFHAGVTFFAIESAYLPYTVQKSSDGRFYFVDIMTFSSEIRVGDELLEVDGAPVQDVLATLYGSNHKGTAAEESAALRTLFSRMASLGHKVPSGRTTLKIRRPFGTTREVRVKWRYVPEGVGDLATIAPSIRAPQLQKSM
# T4 sequence 2: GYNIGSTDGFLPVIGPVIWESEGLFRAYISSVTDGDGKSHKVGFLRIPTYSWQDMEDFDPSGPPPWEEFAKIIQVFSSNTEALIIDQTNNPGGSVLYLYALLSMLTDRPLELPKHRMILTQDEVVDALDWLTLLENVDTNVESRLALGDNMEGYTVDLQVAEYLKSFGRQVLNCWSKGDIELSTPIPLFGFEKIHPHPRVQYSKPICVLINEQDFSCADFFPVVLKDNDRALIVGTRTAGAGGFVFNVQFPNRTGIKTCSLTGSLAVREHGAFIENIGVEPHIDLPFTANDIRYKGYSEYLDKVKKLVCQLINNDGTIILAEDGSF
# Legend:
# [1] = molecular target: T1, Abz-tagged model CPAF substrate …
# [2] = molecular target: Endogenous Tarp from EB lysates
# [3] = molecular target: Endogenous Ct694 from EB lysates
# [4] = molecular target: Endogenous Ct288 from EB lysates
# [5] = molecular target: Recombinant CdsQ, type-III secretion (T3S) core component
# [6] = molecular target: T2, Sequence-scrambled control peptide …
# [7] = molecular target: Recombinant Ct584, T3S needle component
# [8] = molecular target: Recombinant Mcsc, T3S chaperone
# [9] = molecular target: T3, Peptide of SEQ ID NO:7 (CPAF inhibitory …)
# [10] = molecular target: T4, Recombinant Chlamydial Protease-like …; assay: cell-based or functional assay
Binder,KM of CPAF proteolysis of the model substrate (HPLC-based assay) [1],kcat of CPAF proteolysis of the model substrate (HPLC-based assay) [1],kcat/KM of CPAF proteolysis of the model substrate (HPLC-based assay) [1],"incubation of EB lysates with recombinant CPAF, immunoblot (FIG. 7) [2]","incubation of EB lysates with recombinant CPAF, immunoblot (FIG. 7) [3]","incubation of EB lysates with recombinant CPAF, immunoblot (FIG. 7) [4]","incubation with recombinant CPAF, immunoblot (FIG. 5B) [5]","CPAF cleavage of GST-chlamydial substrates in vitro (SDS-PAGE, FIG. 8E) [6]","incubation with recombinant CPAF, immunoblot (FIG. 5B) [7]","incubation with recombinant CPAF, immunoblot (FIG. 5B) [8]","CPAF cleavage of GST-chlamydial substrates in vitro (SDS-PAGE, FIG. 8E) [9]","IC50, inhibition of CPAF cleavage of the Abz-tagged model substrate SEQ ID NO:9 (HPLC-based assay, 62.5 nM CPAF, 0.5 mM substrate) [10]","IC50, inhibition of CPAF cleavage of the Abz/3-nitrotyrosine model substrate SEQ ID NO:10 (FRET-based assay, 62.5 nM CPAF) [10]",fold greater inhibition than SEQ ID NO:2 (HPLC-based assay) [10],fold greater inhibition than lactacystin (HPLC-based assay) [10]
"Recombinant Chlamydial Protease-like Activity Factor (CPAF), his-tagged, expressed in E. coli BL21 (DE3) from pET30b-CPAF (protein) chain 1: IHSPVQGESLVCKNALQDLSFLEHLLQVKYAPKTWKEQYLGWDLVQSSVSAQQKLRTQENPSTSFCQQVLADFIGGLNDFHAGVTFFAIESAYLPYTVQKSSDGRFYFVDIMTFSSEIRVGDELLEVDGAPVQDVLATLYGSNHKGTAAEESAALRTLFSRMASLGHKVPSGRTTLKIRRPFGTTREVRVKWRYVPEGVGDLATIAPSIRAPQLQKSM chain 2: GYNIGSTDGFLPVIGPVIWESEGLFRAYISSVTDGDGKSHKVGFLRIPTYSWQDMEDFDPSGPPPWEEFAKIIQVFSSNTEALIIDQTNNPGGSVLYLYALLSMLTDRPLELPKHRMILTQDEVVDALDWLTLLENVDTNVESRLALGDNMEGYTVDLQVAEYLKSFGRQVLNCWSKGDIELSTPIPLFGFEKIHPHPRVQYSKPICVLINEQDFSCADFFPVVLKDNDRALIVGTRTAGAGGFVFNVQFPNRTGIKTCSLTGSLAVREHGAFIENIGVEPHIDLPFTANDIRYKGYSEYLDKVKKLVCQLINNDGTIILAEDGSF",KM=0.88 mM,kcat=13.2 5^-1,kcat/KM=1.5×10^4 M^-1s^-1,specifically degraded,specifically degraded,"Ct694, TARP and Ct288 were cleaved",Recombinant CPAF does not cleave chlamydial proteins that are resistant to processing by cytosols form infected HeLa cells,but not a scrambled sequence of equal molecular weight (SEQ ID NO:11),Recombinant CPAF does not cleave chlamydial proteins that are resistant to processing by cytosols form infected HeLa cells,Recombinant CPAF does not cleave chlamydial proteins that are resistant to processing by cytosols form infected HeLa cells,broadly inhibited degradation of CPAF substrates in vitro and in vivo,,,,
SLFYSPMVPHFWAELRNHYATSGLKRRRRRRRRR (not fully specified (C-terminus)) [Peptide of SEQ ID NO:7 (CPAF inhibitory segment plus nine C-terminal arginines)],,,,,,,,,,,,0.05 µM,0.03 µM,~30 fold,~200 fold
"SLFYSPMVPHFWAELRNHYATSGLK (not fully specified (C-terminus)) [Peptide of SEQ ID NO:2 (CPAF inhibitory segment, SLFYSPMVPHFWAELRNHYATSGLK)]",,,,,,,,,,,,1.6 µM,,,
